Protein stability index data for 53 proteins are collected here from the supplement of paper PMC10567573.

This data set in a line: protein stability index of a GFP-peptide fusion (GPS, HEK-293T) (PSI 1-6); higher = more stable.
Setting [1] is: parent: IOH13764_23, c terminus: a fixed tail appended.
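Note: lentivirally expressed fusions sorted by FACS into six bins by GFP to DsRed ratio, PSI derived from sequencing read proportions per bin multiplied by bin number.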

For the protein PRNSCITCPQCHRSLILDDRGLRG, the protein stability index (parent: IOH12704_21, c terminus: a fixed tail appended) came to 2.06.

FLDERLYCESHAKARVKPPEGYDV [PDLIM4 WT]: for the setting “parent: IOH13881_50, c terminus: a fixed tail appended”, the protein stability index was 1.92.

As for SLRENDFIEIELDRQELTYQELLR, the protein stability index (parent: IOH13159_46, c terminus: a fixed tail appended) was 2.87.

As for LWKMKPRRNLEEDDYLHKDTGETS, under “parent: IOH13052_3, c terminus: a fixed tail appended”, the protein stability index turned out to be 4.46.

DINSVRYYPSGDAFASGSDDATCR: the protein stability index (parent: IOH14466_41, c terminus: a fixed tail appended) is 3.92.

With VVLKLFLSFSGSDVQNKLKESAQC, the protein stability index (parent: IOH13259_29, c terminus: a fixed tail appended) was 2.49.

Consider FQELAGKELCAMSEEQFRQRSPLG [SPDEF WT], for which the protein stability index (parent: IOH12673_30, c terminus: a fixed tail appended) is 2.63.

Take ARKYFERLPGGGWTLRRTKELRKD: the protein stability index (parent: IOH14793_58, c terminus: a fixed tail appended) stood at 3.49.

YQELLRVCCCELGVNPDQVEKIRK: the protein stability index (parent: IOH13159_49, c terminus: a fixed tail appended) worked out at 2.07.

AFLELPHGSGGSGYPAAPPAVPFA [TBX6 WT]: the protein stability index (parent: IOH14639_65, c terminus: a fixed tail appended) turned out to be 2.31.

Turning to WMLTRKQFGLLSFFFAVLHAIYSL, the protein stability index (parent: IOH13052_27, c terminus: a fixed tail appended) was 1.71.

FWNFKQMWDSKKIGLRQHHCRKCG [WDFY2 WT]: the protein stability index (parent: IOH13317_50, c terminus: a fixed tail appended) was found to be 2.

Turning to FAEKGELRKSIFSESRKPTVSIME, the protein stability index (parent: IOH13948_21, c terminus: a fixed tail appended) was found to be 2.01.

As to RKADFKAGKALVISGREVFEFRPE, the protein stability index (parent: IOH14032_47, c terminus: a fixed tail appended) stood at 2.82.

DLSAANEKNLLLQNQVDELERKFR: the protein stability index (parent: IOH13594_61, c terminus: a fixed tail appended) is 4.05.

As for YGETDFHKQDGKAGLFSQEQYERN [TMEM40 WT], the protein stability index (parent: IOH12831_5, c terminus: a fixed tail appended) is 4.04.

With ELPNIKREISETEAKALLKERQKK, where the note is “parent: IOH14020_55, c terminus: a fixed tail appended”, the protein stability index worked out at 2.4.

Take SGLVRRLWRSRVVPDREEGGSGGG [SMAD6 WT]: the protein stability index (parent: IOH13078_2, c terminus: a fixed tail appended) came out at 4.12.

On to RKCPVHGKTMELFCQTDQTCICYL, for which the protein stability index (parent: IOH13948_38, c terminus: a fixed tail appended) amounted to 2.05.

In the case of ESTIVELGSIFQQLAHMVKEQEET, under “parent: IOH14584_38, c terminus: a fixed tail appended”, the protein stability index came to 2.04.

For the protein AVPTDEARAFAEKNGLSFIETSAL, under setting [1], the protein stability index is 2.34.

In the case of WTVANMEEIKKLTTDPDLILEVLR [LARP4 WT], the protein stability index (parent: IOH13489_15, c terminus: a fixed tail appended) turned out to be 2.1.

Turning to FPSDHLGDLGDPFHLGLEDILMEE, the protein stability index (parent: IOH14020_85, c terminus: a fixed tail appended) came to 3.43.

As for YVPEKVKKAEKKLEENPYDLDAWS [CSTF3 WT], the protein stability index (parent: IOH12987_3, c terminus: a fixed tail appended) was 2.14.

For RMVPALPPKRMLGADREFIEARRR, the protein stability index (parent: IOH13259_22, c terminus: a fixed tail appended) stood at 3.67.

In the case of YYPSGDAFASGSDDATCRLYDLRA, for the setting “parent: IOH14466_42, c terminus: a fixed tail appended”, the protein stability index came out at 2.4.

With YQRVLPLPIFTPAKMGATKEERED [TCAP WT], for the setting “parent: IOH13813_15, c terminus: a fixed tail appended”, the protein stability index came to 2.04.

Turning to EENMERIGEEVRQLMEKLREKQLS, the protein stability index (parent: IOH13216_14, c terminus: a fixed tail appended) amounted to 4.44.

Regarding VRIQNPSLRENDFIEIELDRQELT, for the setting “parent: IOH13159_45, c terminus: a fixed tail appended”, the protein stability index was found to be 2.38.

As to QCIECGKSFNRHCNLIRHQKIHTV, the protein stability index (parent: IOH12838_62, c terminus: a fixed tail appended) was determined as 3.73.

In the case of NIYYYLEDDSMSVIEPVVENSGIL [EFHC1 WT], the protein stability index (parent: IOH14055_21, c terminus: a fixed tail appended) is 2.15.

As for PAVDLNQVLNETRNQYEALVETNR, the protein stability index (parent: IOH13096_37, c terminus: a fixed tail appended) was determined as 3.33.

On to YQSYFKTIEELQQKILCSKSENAR, for which the protein stability index (parent: IOH13096_18, c terminus: a fixed tail appended) was 1.93.

For the protein VAHVESLQEKSQCALEEYVRSQYP, the protein stability index (parent: IOH12813_56, c terminus: a fixed tail appended) came to 3.61.

As for MTVEKEAPDAHFTVDKQNISLWPR [CD207 WT], the protein stability index (parent: IOH12930_1, c terminus: a fixed tail appended) amounted to 3.23.

Regarding CVQCKMPVCYQCLEEGKHSSHEVK, under “parent: IOH12704_41, c terminus: a fixed tail appended”, the protein stability index came to 3.89.

Take FHLGLEDILMEEEEGVVGGLSGGA: the protein stability index (parent: IOH14020_87, c terminus: a fixed tail appended) was determined as 3.6.

For the protein LHQETQLIHVYLPLTSHILRAFVN, the protein stability index (parent: IOH13259_67, c terminus: a fixed tail appended) was 2.4.

As to FQTRQEMTSMSAELKMRAIQAEER, the protein stability index (parent: IOH13594_66, c terminus: a fixed tail appended) is 4.

For QKRYHCKECGKVFSQSAGLIQHQR, the protein stability index (parent: IOH12838_52, c terminus: a fixed tail appended) was 3.14.

For the protein TLAALLLNRSESDIRYLLGYVSQQ [FEM1B WT], the protein stability index (parent: IOH13134_4, c terminus: a fixed tail appended) turned out to be 2.44.

Turning to FWHDTLTEQLWRIFAGVHDEKAKP [TLE6 WT], where the note is “parent: IOH13956_6, c terminus: a fixed tail appended”, the protein stability index was 1.76.

As for HSLRAVSTDPPHHDHHDEFCLMP, the protein stability index (parent: IOH13216_18, c terminus: native) was found to be 2.27.

Take LVVFTASMEIYGSAVADKLDNSRS [DULLARD WT]: the protein stability index (parent: IOH12711_22, c terminus: a fixed tail appended) amounted to 2.76.

Take FVENGHSESSGQTHLEGDTVQIIC [CFHR2 WT]: the protein stability index (parent: IOH13657_16, c terminus: a fixed tail appended) stood at 2.78.

As to YFKCVQKDIQPYMRRMVATWMLEV [CCND2 WT], the protein stability index (parent: IOH13739_8, c terminus: a fixed tail appended) turned out to be 2.47.

Turning to RSEFTLMAKRIGKDLSNTFAKLEK, the protein stability index (parent: IOH14584_7, c terminus: a fixed tail appended) was found to be 2.17.

KKVLNHGYDDDNHDYIVRSGERWL: the protein stability index (parent: IOH14793_15, c terminus: a fixed tail appended) came out at 2.93.

On to NIPFFPDLQITDQVALLRLTWSEL, for which the protein stability index (parent: IOH12813_39, c terminus: a fixed tail appended) turned out to be 2.29.

Turning to VCCCELGVNPDQVEKIRKLPNTLL, for the setting “parent: IOH13159_50, c terminus: a fixed tail appended”, the protein stability index was 1.91.

Turning to QEAKLLHWNGRHKPWDFPSVHNDL [GLT8D2 WT], the protein stability index (parent: IOH13397_52, c terminus: a fixed tail appended) came to 2.77.

For ENLFTGEDLDELEEELNTLDLEE, the protein stability index (parent: IOH14032_69, c terminus: native) came out at 4.42.

As for AVPTDEARAFAEKNNLSFIETSAL, under setting [1], the protein stability index was determined as 2.72.
